Values of other authors in patent US20260035452A1 (THE UNIVERSITY OF BIRMINGHAM, priority 2022, published 2026).

Test system: patients
Details: cited from earlier work

Question: Which “side effect: intestinal inflammation” value (patients with IBD) does the source give for “brodalumab: licensed mAb in the IL-17-IL-17R pathway” here?
Answer: enhanced intestinal inflammation

Question: And the “side effect: suicidal thoughts” value (some patients with psoriasis)?
Answer: suicidal thoughts in some patients with psoriasis
